Tested on: Escherichia coli TOP10
Assay: shrunken log2 fold change of peptide-encoding DNA abundance (4.5 h post-induction vs induction); higher = less antimicrobial activity (less host growth inhibition)
Settings: time post-induction: 4.5 h; library: site-saturation at positions 5, 18, 19, 20
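Note: peptides expressed intracellularly from a pBAD plasmid library in pooled LB shake-flask culture, induced with 0.3% L-arabinose, DNA abundance read by NGS, three biological replicates, DESeq2 with apeglm shrinkage.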

Going from RRIRFRPPRLPRPRPRPPQCPRP to RRIRFRPPRLPRPRPRPPQRPRP, the “shrunken log2 fold change” value rises from 0.237 to 0.617.

Compared with RRIRFRPPRLPRPRPRPPRNPRP, RRIRFRPPRLPRPRPRPPSLPRP is lower in “shrunken log2 fold change” value: 0.263 for the first, -0.112 for the second.

RRIRFRPPRLPRPRPRPPSYPRP and RRIRFRPPRLPRPRPRPPTFPRP are within 0.2 log units of each other in “shrunken log2 fold change” value: -0.0274 for the first, -0.0402 for the second.

RRIRFRPPRLPRPRPRPPTLPRP and RRIRFRPPRLPRPRPRPPVCPRP are within 0.2 log units of each other in “shrunken log2 fold change” value: -0.0735 for the first, -0.0141 for the second.

Compared with RRIRFRPPRLPRPRPRPPVPPRP, RRIRFRPPRLPRPRPRPPWCPRP is lower in “shrunken log2 fold change” value: 0.859 for the first, 0.0236 for the second.

Compared with RRIRFRPPRLPRPRPRPPYCPRP, RRIRFRPPRLPRPRPRPQAYPRP is higher in “shrunken log2 fold change” value: -0.448 for the first, -0.0572 for the second.

Compared with RRIRFRPPRLPRPRPRPQCAPRP, RRIRFRPPRLPRPRPRPQDKPRP is lower in “shrunken log2 fold change” value: 0.057 for the first, -0.308 for the second.

RRIRFRPPRLPRPRPRPQELPRP and RRIRFRPPRLPRPRPRPQGCPRP are within 0.2 log units of each other in “shrunken log2 fold change” value: -0.0341 for the first, -0.13 for the second.

RRIRFRPPRLPRPRPRPQGFPRP and RRIRFRPPRLPRPRPRPQGYPRP are within 0.2 log units of each other in “shrunken log2 fold change” value: -0.313 for the first, -0.249 for the second.

Compared with RRIRFRPPRLPRPRPRPQHEPRP, RRIRFRPPRLPRPRPRPQHLPRP is lower in “shrunken log2 fold change” value: -0.25 for the first, -1.22 for the second.

Compared with RRIRFRPPRLPRPRPRPQHYPRP, RRIRFRPPRLPRPRPRPQIAPRP is higher in “shrunken log2 fold change” value: -1.01 for the first, 0.111 for the second.

RRIRFRPPRLPRPRPRPQIFPRP and RRIRFRPPRLPRPRPRPQKMPRP are within 0.2 log units of each other in “shrunken log2 fold change” value: -0.172 for the first, -0.221 for the second.

RRIRFRPPRLPRPRPRPQKNPRP and RRIRFRPPRLPRPRPRPQKTPRP are within 0.2 log units of each other in “shrunken log2 fold change” value: 0.16 for the first, 0.00435 for the second.

Compared with RRIRFRPPRLPRPRPRPQKWPRP, RRIRFRPPRLPRPRPRPQLNPRP is lower in “shrunken log2 fold change” value: -0.0281 for the first, -0.53 for the second.

Going from RRIRFRPPRLPRPRPRPQMRPRP to RRIRFRPPRLPRPRPRPQPHPRP, the “shrunken log2 fold change” value falls from 0.495 to 0.166.

Compared with RRIRFRPPRLPRPRPRPQPKPRP, RRIRFRPPRLPRPRPRPQQCPRP is lower in “shrunken log2 fold change” value: 0.666 for the first, -0.181 for the second.

Going from RRIRFRPPRLPRPRPRPQQYPRP to RRIRFRPPRLPRPRPRPQRFPRP, the “shrunken log2 fold change” value rises from -0.552 to 0.0542.

Compared with RRIRFRPPRLPRPRPRPQTTPRP, RRIRFRPPRLPRPRPRPQVDPRP is lower in “shrunken log2 fold change” value: 0.00489 for the first, -0.412 for the second.

Going from RRIRFRPPRLPRPRPRPQWMPRP to RRIRFRPPRLPRPRPRPQWPPRP, the “shrunken log2 fold change” value rises from -0.414 to 0.192.

Going from RRIRFRPPRLPRPRPRPQWQPRP to RRIRFRPPRLPRPRPRPQYYPRP, the “shrunken log2 fold change” value falls from -0.08 to -0.846.

First: RRIRFRPPRLPRPRPRPRAGPRP
Second: RRIRFRPPRLPRPRPRPRCHPRP
The “shrunken log2 fold change” value of the first is higher: 0.614 for the first, -0.0965 for the second.

First: RRIRFRPPRLPRPRPRPRDCPRP
Second: RRIRFRPPRLPRPRPRPRELPRP
The “shrunken log2 fold change” value of the first is higher: 2.96 for the first, 0.263 for the second.

Going from RRIRFRPPRLPRPRPRPRGTPRP to RRIRFRPPRLPRPRPRPRHHPRP, the “shrunken log2 fold change” value falls from 0.294 to -0.116.

Going from RRIRFRPPRLPRPRPRPRIKPRP to RRIRFRPPRLPRPRPRPRKHPRP, the “shrunken log2 fold change” value rises from -0.168 to 0.0878.

RRIRFRPPRLPRPRPRPRKPPRP and RRIRFRPPRLPRPRPRPRLCPRP are within 0.2 log units of each other in “shrunken log2 fold change” value: 0.428 for the first, 0.276 for the second.

Going from RRIRFRPPRLPRPRPRPRLVPRP to RRIRFRPPRLPRPRPRPRNQPRP, the “shrunken log2 fold change” value falls from 0.207 to -0.114.

RRIRFRPPRLPRPRPRPRPCPRP and RRIRFRPPRLPRPRPRPRPEPRP are within 0.2 log units of each other in “shrunken log2 fold change” value: 0.386 for the first, 0.477 for the second.

Going from RRIRFRPPRLPRPRPRPRPHPRP to RRIRFRPPRLPRPRPRPRPPPRP, the “shrunken log2 fold change” value rises from 0.355 to 1.36.

Going from RRIRFRPPRLPRPRPRPRPYPRP to RRIRFRPPRLPRPRPRPRQDPRP, the “shrunken log2 fold change” value rises from -0.175 to 0.253.

Going from RRIRFRPPRLPRPRPRPRQRPRP to RRIRFRPPRLPRPRPRPRQTPRP, the “shrunken log2 fold change” value falls from 0.346 to -0.0912.

First: RRIRFRPPRLPRPRPRPRREPRP
Second: RRIRFRPPRLPRPRPRPRRHPRP
The “shrunken log2 fold change” value of the first is lower: 0.177 for the first, 0.822 for the second.

Going from RRIRFRPPRLPRPRPRPRRRPRP to RRIRFRPPRLPRPRPRPRSVPRP, the “shrunken log2 fold change” value falls from 0.658 to -0.00149.

RRIRFRPPRLPRPRPRPRVIPRP and RRIRFRPPRLPRPRPRPRVRPRP are within 0.2 log units of each other in “shrunken log2 fold change” value: -0.0914 for the first, 0.0771 for the second.

Compared with RRIRFRPPRLPRPRPRPRYAPRP, RRIRFRPPRLPRPRPRPRYTPRP is lower in “shrunken log2 fold change” value: 0.148 for the first, -0.15 for the second.

Compared with RRIRFRPPRLPRPRPRPSECPRP, RRIRFRPPRLPRPRPRPSEWPRP is higher in “shrunken log2 fold change” value: -0.472 for the first, -0.028 for the second.

Compared with RRIRFRPPRLPRPRPRPSFVPRP, RRIRFRPPRLPRPRPRPSGWPRP is higher in “shrunken log2 fold change” value: -0.828 for the first, 0.187 for the second.

Going from RRIRFRPPRLPRPRPRPSIDPRP to RRIRFRPPRLPRPRPRPSIVPRP, the “shrunken log2 fold change” value falls from -0.433 to -0.663.

For RRIRFRPPRLPRPRPRPSIYPRP, the “shrunken log2 fold change” value was -0.615.
